The record followed here is patent US7163817.

For data set [1], the target named is T1, SK-FBD(1,2) chimeric protein.
T1 chain: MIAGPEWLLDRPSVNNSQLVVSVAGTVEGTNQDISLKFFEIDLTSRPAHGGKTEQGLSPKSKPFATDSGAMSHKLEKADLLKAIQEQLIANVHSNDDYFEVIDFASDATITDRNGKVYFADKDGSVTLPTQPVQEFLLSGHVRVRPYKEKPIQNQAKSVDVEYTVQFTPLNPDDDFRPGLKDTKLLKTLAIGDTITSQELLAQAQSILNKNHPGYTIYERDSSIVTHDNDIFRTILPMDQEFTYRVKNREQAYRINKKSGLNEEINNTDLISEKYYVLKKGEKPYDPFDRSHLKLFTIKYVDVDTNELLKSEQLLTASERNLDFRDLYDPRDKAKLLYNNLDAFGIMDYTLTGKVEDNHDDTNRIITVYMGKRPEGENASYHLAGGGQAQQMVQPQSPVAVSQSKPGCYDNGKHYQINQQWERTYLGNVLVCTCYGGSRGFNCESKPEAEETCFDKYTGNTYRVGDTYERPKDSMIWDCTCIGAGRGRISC

Data set [2] deals with FBD(4,5)-SK chimeric protein.
Data set [3] addresses T2, native SK from Streptococcus sp. (ATCC 12449).
T2 chain: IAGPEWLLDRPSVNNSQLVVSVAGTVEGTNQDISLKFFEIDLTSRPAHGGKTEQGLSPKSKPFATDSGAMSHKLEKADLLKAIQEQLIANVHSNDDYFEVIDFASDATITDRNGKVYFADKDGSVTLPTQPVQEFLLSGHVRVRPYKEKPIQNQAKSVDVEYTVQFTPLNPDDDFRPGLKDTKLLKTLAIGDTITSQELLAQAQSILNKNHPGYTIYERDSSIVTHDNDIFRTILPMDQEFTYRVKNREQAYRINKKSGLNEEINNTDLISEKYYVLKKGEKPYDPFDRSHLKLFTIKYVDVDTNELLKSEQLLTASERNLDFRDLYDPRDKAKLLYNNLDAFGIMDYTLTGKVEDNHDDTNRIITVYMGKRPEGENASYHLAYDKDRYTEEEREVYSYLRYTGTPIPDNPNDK

For data set [4], the target named is SK-FBD(4,5) chimeric protein, SK[residues 1-383]-(gly-gly-gly)-[FBD(4,5)].
Data set [5] addresses T3, Met-SK (recombinant SK purified from E. coli).
T3 chain: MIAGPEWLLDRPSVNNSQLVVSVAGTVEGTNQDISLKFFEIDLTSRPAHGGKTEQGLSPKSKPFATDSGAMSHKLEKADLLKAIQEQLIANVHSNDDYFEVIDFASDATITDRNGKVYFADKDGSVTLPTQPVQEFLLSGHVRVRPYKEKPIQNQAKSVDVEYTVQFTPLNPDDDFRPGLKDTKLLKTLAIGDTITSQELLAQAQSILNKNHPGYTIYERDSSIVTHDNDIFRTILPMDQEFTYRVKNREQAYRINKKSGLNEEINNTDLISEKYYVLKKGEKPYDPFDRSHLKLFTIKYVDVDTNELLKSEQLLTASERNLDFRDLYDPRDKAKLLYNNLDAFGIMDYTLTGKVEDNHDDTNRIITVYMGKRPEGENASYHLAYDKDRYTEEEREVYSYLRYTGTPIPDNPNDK

Data set [6] deals with FBD(4,5)-SK-FBD(4,5) chimeric protein.

B1: human plasminogen (protein)
chain: EPLDDYVNTQGASLFSVTKKQLGAGSIEECAAKCEEDEEFTCRAFQYHSKEQQCVIMAENRKSSIIIRMRDVVLFEKKVYLSECKTGNGKNYRGTMSKTKNGITCQKWSSTSPHRPRFSPATHPSEGLEENYCRNPDNDPQGPWCYTTDPEKRYDYCDILECEEECMHCSGENYDGKISKTMSGLECQAWDSQSPHAHGYIPSKFPNKNLKKNYCRNPDRELRPWCFTTDPNKRWELCDIPRCTTPPPSSGPTYQCLKGTGENYRGNVAVTVSGHTCQHWSAQTPHTHNRTPENFPCKNLDENYCRNPDGKRAPWCHTTNSQVRWEYCKIPSCDSSPVSTEQLAPTAPPELTPVVQDCYHGDGQSYRGTSSTTTTGKKCQSWSSMTPHRHQKTPENYPNAGLTMNYCRNPDADKGPWCFTTDPSVRWEYCNLKKCSGTEASVVAPPPVVLLPDVETPSEEDCMFGNGKGYRGKRATTVTGTPCQDWAAQEPHRHSIFTPETNPRAGLEKNYCRNPDGDVGGPWCYTTNPRKLYDYCDVPQCAAPSFDCGKPQVEPKKCPGRVVGGCVAHPHSWPWQVSLRTRFGMHFCGGTLISPEWVLTAAHCLEKSPRPSSYKVILGAHQEVNLEPHVQEIEVSRLFLEPTRKDIALLKLSSPAVITDKVIPACLPSPNYVVADRTECFITGWGETQGTFGAGLLKEAQLPVIENKVCNRYEFLNGRVQSTELCAGHLAGGTDSCQGDSGGPLVCFEKDKYILQGVTSWGLGCARPNKPGVYVRVSRFVTWIEGVMRNN
Regarding B1, the Kplg (Km for HPG), steady-state HPG activation, chromogenic one-stage assay, linear phase after the lag amounted to 0.18 µM in data set [1], 0.16 µM in data set [2], 0.15 µM in data set [4] and 0.2 µM in data set [6]. Further, the Kplg (Km for HPG), steady-state HPG activation, chromogenic one-stage assay was 0.14 µM in data set [3] and 0.18 µM in data set [5].
